Experimental data reported in paper PMC8073111.

Columns and labels:
C-myc-CCR7-RLuc8 (human) [1] = target: C-myc-CCR7-RLuc8 (human) (UniProt P32248)
C-myc-CCR7-RLuc8 (human) [2] = target: C-myc-CCR7-RLuc8 (human) (UniProt P32248); conditions: scale: pEC50
C-myc-CCR4-RLuc8 (human) = target: T1, C-myc-CCR4-RLuc8 (human) (UniProt P51679)
T1 sequence: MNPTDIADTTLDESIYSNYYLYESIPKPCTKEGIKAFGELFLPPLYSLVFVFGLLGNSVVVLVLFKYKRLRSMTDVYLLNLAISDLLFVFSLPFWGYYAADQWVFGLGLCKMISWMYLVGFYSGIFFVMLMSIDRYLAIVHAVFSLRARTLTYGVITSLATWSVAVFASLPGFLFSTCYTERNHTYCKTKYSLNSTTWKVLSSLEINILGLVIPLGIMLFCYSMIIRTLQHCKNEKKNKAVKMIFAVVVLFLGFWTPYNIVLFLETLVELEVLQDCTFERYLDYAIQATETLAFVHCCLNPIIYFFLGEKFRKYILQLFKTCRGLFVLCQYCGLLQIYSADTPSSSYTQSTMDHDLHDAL

[3] = target: T2, C-myc-CCR10-RLuc8 (human) (UniProt P46092)
T2 sequence: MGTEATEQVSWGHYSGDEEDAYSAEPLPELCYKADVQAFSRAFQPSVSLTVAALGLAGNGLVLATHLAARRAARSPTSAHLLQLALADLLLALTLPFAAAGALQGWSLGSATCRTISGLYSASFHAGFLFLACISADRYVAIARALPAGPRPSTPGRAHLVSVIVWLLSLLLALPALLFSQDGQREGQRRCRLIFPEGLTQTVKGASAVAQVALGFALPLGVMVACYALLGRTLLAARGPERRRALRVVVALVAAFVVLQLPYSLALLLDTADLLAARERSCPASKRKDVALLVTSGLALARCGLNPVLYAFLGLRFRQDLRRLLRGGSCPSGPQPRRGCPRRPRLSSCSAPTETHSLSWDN

UniProt P32248, sequence (P32248 25-378): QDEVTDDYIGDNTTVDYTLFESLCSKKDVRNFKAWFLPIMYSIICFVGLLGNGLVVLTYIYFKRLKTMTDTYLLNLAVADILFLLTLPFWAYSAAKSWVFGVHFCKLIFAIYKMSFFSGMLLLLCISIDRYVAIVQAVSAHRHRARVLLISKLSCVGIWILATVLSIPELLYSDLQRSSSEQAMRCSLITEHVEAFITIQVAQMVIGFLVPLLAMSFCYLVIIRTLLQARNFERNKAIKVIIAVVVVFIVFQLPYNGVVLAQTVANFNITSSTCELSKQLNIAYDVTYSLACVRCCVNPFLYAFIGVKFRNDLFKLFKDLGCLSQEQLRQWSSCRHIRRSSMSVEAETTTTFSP

## CCL21 (from UniProt O00585 24-134) (ligand)
C-myc-CCR7-RLuc8 (human) [1]
  G protein activation via CCR7: Emax relative to CCL19: 103%
  cAMP inhibition via CCR7: Emax relative to CCL19: 99%
C-myc-CCR7-RLuc8 (human) [2]
  β-arrestin2 recruitment to CCR7 (BRET): pEC50 as printed in the text, assuming the same Emax value (differs from Table 1): 6.7

## CC chemokine ligand 17 (CCL17) (from UniProt Q92583 24-94)
C-myc-CCR4-RLuc8 (human)
  β-arrestin2 recruitment to CCR4 (BRET): Emax relative to CCL22: 28%

B1: CCL28(4-108) (ligand)
chain: ILPIASSCCTEVSHHISRRLLERVNMCRIQRADGDCDLAAVILHVKRRRICVSPHNHTVKQWMKVQAAKKNGKGNVCHRKKHHGKRNSNRAHQGKHETYGHKTPY
[3]
  G protein activation via CCR10: maximum signal observed relative to the Emax of CCL27; curve not saturated: 80%
  NFAT Ca2+ reporter via CCR10: Emax relative to CCL27: 106%
  cAMP inhibition via CCR10: maximum signal observed relative to the Emax of CCL27; curve not saturated: 64%
  β-arrestin2 recruitment to CCR10 (BRET): maximum signal observed relative to the Emax of CCL27; curve not saturated, potency ND: 82%
